The results in this text go back to patent publication US12702694B2, “Methods for identification, assessment, prevention, and treatment of metabolic disorders using SLIT2” (Dana-Farber Cancer Institute, Inc., priority 2015, dated 2026).

The test system of experiment [1] is UCP1. As to the kind of experiment: UCP1 immunohistochemistry on adipose tissue sections. Conditions: day 7. Type of experiment: in vivo, Mus musculus. The method, then: Tissues were fixed in 4% paraformaldehyde. Paraffin embedding and sectioning were done by the Dana-Farber/Harvard Cancer Center Research Pathology core facility. For UCP1 immunohistochemistry, slides were deparaffinized in xylene, hydrated in descending 95%, 80% and 70% ethanol, and rinsed in water before heat-mediated antigen retrieval in 10 mM, pH 6.0 sodium citrate buffer. Quenching of endogenous peroxidases was performed using peroxidase quenching solution (Invitrogen). Slides were blocked in 10% goat serum and incubated with rabbit polyclonal UCP1 antibody (Abcam, ab10983) at […] in PBS-T/1% BSA overnight at 4° C. Slides were washed in PBS-T and incubated with 1:500 donkey anti-rabbit IgG HRP-linked antibody (GE healthcare) before developing using a SuperPicture™ 3rd Gen IHC Detection Kit (Invitrogen). Hematoxylin was used as counterstain. […] Digital images were captured with a Nikon Digital Sight DS-Fil color camera and NIS-Elements acquisition software.

In experiment [2] the test system is primary brown fat cells. The experiment in a line: Thermogenic gene expression in primary brown fat cells with adenoviral overexpression. The following applies: Slit2-C vs LacZ virus, day 7; FIG. 6B. Type of experiment: cell-based, Mus musculus. The method, then:
(§1) Inguinal and brown stromal-vascular fractions were obtained from 6 weeks old male or newborn mice (postnatal days 5-10) for white and brown fat cultures, respectively. Inguinal fat tissue was dissected and washed with PBS, minced and digested for 45 min at 37° C. in PBS containing 10 mM CaCl2), 2.4 U/ml dispase II (Roche) and 10 mg/ml collagenase D (Roche). Brown fat tissue was dissected, washed with PBS, minced and digested for 45 min at 37° C. in PBS containing 1.3 mM CaCl2, 123 mM NaCl, 5 mM KCl, 5.0 mM glucose, 100 mM HEPES, 4% BSA and 1.5 mg/ml collagenase B (Roche). Digested tissue was filtered through a 100-μm cell strainer and centrifuged at 600 g for 10 min. […] For adenoviral overexpression of Slit2-FL, Slit2-N, Slit2-C, LacZ or Cre, virus was added at day 2 of differentiation at a titer of 10^8 particles/well and cells were analyzed at day 6-7. […]
(§2) RNA was extracted from cultured cells or frozen tissue samples using TRIzol®, purified with QIAGEN RNeasy® minicolumns. Normalized RNA was reversed transcribed using a high-capacity cDNA reverse transcription lot (Applied Biosystems) and cDNA was analyzed by qRT-CPR. Relative mRNA levels were calculated using the comparative CT method and normalized to cyclophilin […]. […]

Experiment [3] has as its system high fat diet-fed mice. The experiment in a line: Whole body energy expenditure (CLAMS) and tissue weights. Type of experiment: in vivo, Mus musculus. The method, then:
(§3) Glucose tolerance tests were performed on mice 7 days post-injection with adenovirus. […] Animals were fasted overnight and then received intraperitoneal glucose at […]. Energy expenditure was analyzed using a Comprehensive Lab Animal Monitoring System (Columbus Instruments). Cold exposure and thermoneutrality experiments were performed in Balb/c mice at 4° C. or 30° C., respectively. Total levels of cholesterol, free fatty acids, triglycerides and insulin were measured at the Core Facility at Joslin Diabetes Center.

A short description of experiment [4]: Plasma cholesterol, triglycerides and insulin. Type of experiment: in vivo, Mus musculus. The following applies: 7 days post-injection. The method, then:
as §3

Experiment [5] concerns diet-induced obese mice. As to the kind of experiment: Intraperitoneal glucose tolerance test. Type of experiment: in vivo, Mus musculus. As for the experimental part:
as §3

The subject of experiment [6] is primary inguinal cells. As to the kind of experiment: Thermogenic gene expression in primary inguinal cells with adenoviral overexpression. Type of experiment: cell-based, Mus musculus. The method, then: as §1, §2
The mark [7] stands for this setting: 16-week high fat diet-fed mice, Slit2-C adenovirus vs LacZ.

B1: Slit2-C: ~50 kDa C-terminal cleavage fragment of Slit2 beginning at TSP (SEQ ID NO: 22); adenovirally expressed or purified FLAG-tagged protein (protein, listed as Homo sapiens)
chain: TSPCDNFDCQNGAQCIIRINEPICQCLPGYLGEKCEKLVSVNFVNKESYLQIPSAKVRPQTNITLQIATDEDSGILLYKGDKDHIAVELYRGRVRASYDTGSHPASAIYSVETINDGNFHIVELLTLDSSLSLSVDGGSPKVITNLSKQSTLNFDSPLYVGGMPGKNNVASLRQAPGQNGTSFHGCIRNLYINSELQDFRKMPMQTGILPGCEPCHKKVCAHGMCQPSSQSGFTCECEEGWMGPLCDQRTNDPCLGNKCVHGTCLPINAFSYSCKCLEGHGGVLCDEEEDLFNPCQMIKCKHGKCRLSGVGQPYCECNSGFTGDSCDREISCRGERIRDYYQKQQGYAACQTTKKVSRLECRGGCAGGQCCGPLRSKRRKYSFECTDGSSFVDEVEKVVKCGCARCAS
modifications: FLAG tag
notes: adenovirally expressed or purified FLAG-tagged protein
For the molecule B1, in experiment [1] (Slit2-C vs control animals, FIGS. 6E, 6G), the “UCP1 staining in inguinal white fat depots” value is reported as “multiple pockets of UCP1-positive cells”. Further, the “thermogenic gene expression response of primary brown fat cells” value in experiment [2] is “responded stronger”. For the same molecule, in experiment [3] (setting [7]), the body weight entry was “no observable difference”, the food intake result was “no observable difference”, the locomotor activity result was “no observable difference” and the “respiratory exchange ratio (RER)” value is on record as “no observable difference”. For the same molecule, the whole-body oxygen consumption result in experiment [3] (16-week high fat diet-fed mice, Slit2-C adenovirus vs LacZ, normalized to total body weight) is “induced”. In addition, the “mass of the brown and inguinal depots” value in experiment [3] (day 7 post-injection, FIGS. 8F, 8I) is recorded as “reduction”. Besides, in experiment [4] (FIG. 9G), the total plasma cholesterol entry was “not affected”. Further, the plasma triglycerides entry in experiment [4] (FIG. 9H) is on record as “not affected”. Further, the non-fasting insulin levels entry in experiment [4] (FIG. 9I) is “not affected”. Moreover, the glucose tolerance result in experiment [5] (diet-induced obese mice, circulating Slit2-C, day 7, FIG. 8G) was “dramatically improve”. Also, the “thermogenic gene expression in primary inguinal cells” value in experiment [6] (Slit2-C vs LacZ virus, day 7, FIG. 6A) is “comparable to full-length Slit2”.

B2: Slit2: Slit family secreted extracellular matrix protein, full length ~180 kDa; used as commercial recombinant protein or adenovirally expressed (protein)
chain: QACPAQCSCSGSTVDCHGLALRSVPRNIPRNTERLDLNGNNITRITKIDFAGLRHLRVLQLMENRISTIERGAFQDLKELERLRLNRNNLQLFPELLFLGTAKLYRLDLSENQIQAIPRKAFRGAVDIKNLQLDYNQISCIEDGAFRALRDLEVLTLNNNNITRLSVASFNHMPKLRTFRLHSNNLYCDCHLAWLSDWLRQRPRVGLYTQCMGPSHLRGHNVAEVQKREFVCSGHQSFMAPSCSVLHCPAACTCSNNIVDCRGKGLTEIPTNLPETITEIRLEQNSIRVIPPGAFSPYKKLRRLDLSNNQISELAPDAFQGLRSLNSLVLYGNKITELPKSLFEGLFSLQLLLLNANKINCLRVDAFQDLHNLNLLSLYDNKLQTVAKGTFSALRAIQTMHLAQNPFICDCHLKWLADYLHTNPIETSGARCTSPRRLANKRIGQIKSKKFRCSGTEDYRSKLSGDCFADLACPEKCRCEGTTVDCSNQRLNKIPDHIPQYTAELRLNNNEFTVLEATGIFKKLPQLRKINFSNNKITDIEEGAFEGASGVNEILLTSNRLENVQHKMFKGLESLKTLMLRSNRISCVGNDSFIGLGSVRLLSLYDNQITTVAPGAFDSLHSLSTLNLLANPFNCNCHLAWLGEWLRRKRIVTGNPRCQKPYFLKEIPIQDVAIQDFTCDDGNDDNSCSPLSRCPSECTCLDTVVRCSNKGLKVLPKGIPKDVTELYLDGNQFTLVPKELSNYKHLTLIDLSNNRISTLSNQSFSNMTQLLTLILSYNRLRCIPPRTFDGLKSLRLLSLHGNDISVVPEGAFNDLSALSHLAIGANPLYCDCNMQWLSDWVKSEYKEPGIARCAGPGEMADKLLLTTPSKKFTCQGPVDITIQAKCNPCLSNPCKNDGTCNNDPVDFYRCTCPYGFKGQDCDVPIHACISNPCKHGGTCHLKEGENAGFWCTCADGFEGENCEVNIDDCEDNDCENNSTCVDGINNYTCLCPPEYTGELCEEKLDFCAQDLNPCQHDSKCILTPKGFKCDCTPGYIGEHCDIDFDDCQDNKCKNGAHCTDAVNGYTCVCPEGYSGLFCEFSPPMVLPRTSPCDNFDCQNGAQCIIRINEPICQCLPGYLGEKCEKLVSVNFVNKESYLQIPSAKVRPQTNITLQIATDEDSGILLYKGDKDHIAVELYRGRVRASYDTGSHPASAIYSVETINDGNFHIVELLTLDSSLSLSVDGGSPKVITNLSKQSTLNFDSPLYVGGMPGKNNVASLRQAPGQNGTSFHGCIRNLYINSELQDFRKMPMQTGILPGCEPCHKKVCAHGMCQPSSQSGFTCECEEGWMGPLCDQRTNDPCLGNKCVHGTCLPINAFSYSCKCLEGHGGVLCDEEEDLFNPCQMIKCKHGKCRLSGVGQPYCECNSGFTGDSCDREISCRGERIRDYYQKQQGYAACQTTKKVSRLECRGGCAGGQCCGPLRSKRRKYSFECTDGSSFVDEVEKVVKCGCARCAS
As to B2, the “iWAT UCP1 protein” value in experiment [1] (histological sections, i.v. Slit2 adenovirus) was “increased”. Besides, in experiment [3] (full-length Slit2 adenovirus, FIGS. 9A-9E), the “energy expenditure, compared with Slit2-C experiments” value is on record as “comparable results”. The “glucose tolerance, compared with Slit2-C experiments” value in experiment [5] (full-length Slit2 adenovirus, FIG. 9F) is “comparable results”. For the same molecule, the “increase in Ucp1 mRNA” value in experiment [6] (adenovirus on day 2 of differentiation, analyzed day 7, vs lacZ, FIG. 3D) was found to be 8 fold.
